Assay results: patent publication US20220298255A1 (SEATTLE CHILDREN S HOSPITAL D B A SEATTLE CHILDREN S …, published 2022)

T1: mouse E-cadherin (form in the assay not stated) (mouse, UniProt P09803 157-709, limits assumed)
T1 construct: neither place states the form; also called the mouse E-cadherin
T1 sequence (looked up): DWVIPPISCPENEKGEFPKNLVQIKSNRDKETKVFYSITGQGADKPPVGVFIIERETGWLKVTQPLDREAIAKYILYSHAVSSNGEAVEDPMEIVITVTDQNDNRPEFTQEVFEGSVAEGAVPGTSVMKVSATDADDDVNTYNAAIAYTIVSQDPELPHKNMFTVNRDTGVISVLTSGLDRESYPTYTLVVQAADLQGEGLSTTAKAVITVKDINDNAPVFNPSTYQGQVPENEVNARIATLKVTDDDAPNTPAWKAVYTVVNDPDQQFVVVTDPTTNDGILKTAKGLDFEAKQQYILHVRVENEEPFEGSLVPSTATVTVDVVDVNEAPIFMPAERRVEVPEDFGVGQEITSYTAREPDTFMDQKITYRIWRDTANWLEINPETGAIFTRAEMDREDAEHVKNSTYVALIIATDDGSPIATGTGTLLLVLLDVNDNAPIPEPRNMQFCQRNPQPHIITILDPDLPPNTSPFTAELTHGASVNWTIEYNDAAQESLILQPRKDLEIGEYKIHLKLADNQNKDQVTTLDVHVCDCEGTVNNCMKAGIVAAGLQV

T2: mouse E-cadherin on cells (endogenous on 4T1 and Py2T cells; expressed in colo205 cells) (mouse, UniProt P09803 157-884)
T2 construct: whole, on cells; also called endogenous mouse E-cadherin; mE-cadherin
T2 sequence (looked up): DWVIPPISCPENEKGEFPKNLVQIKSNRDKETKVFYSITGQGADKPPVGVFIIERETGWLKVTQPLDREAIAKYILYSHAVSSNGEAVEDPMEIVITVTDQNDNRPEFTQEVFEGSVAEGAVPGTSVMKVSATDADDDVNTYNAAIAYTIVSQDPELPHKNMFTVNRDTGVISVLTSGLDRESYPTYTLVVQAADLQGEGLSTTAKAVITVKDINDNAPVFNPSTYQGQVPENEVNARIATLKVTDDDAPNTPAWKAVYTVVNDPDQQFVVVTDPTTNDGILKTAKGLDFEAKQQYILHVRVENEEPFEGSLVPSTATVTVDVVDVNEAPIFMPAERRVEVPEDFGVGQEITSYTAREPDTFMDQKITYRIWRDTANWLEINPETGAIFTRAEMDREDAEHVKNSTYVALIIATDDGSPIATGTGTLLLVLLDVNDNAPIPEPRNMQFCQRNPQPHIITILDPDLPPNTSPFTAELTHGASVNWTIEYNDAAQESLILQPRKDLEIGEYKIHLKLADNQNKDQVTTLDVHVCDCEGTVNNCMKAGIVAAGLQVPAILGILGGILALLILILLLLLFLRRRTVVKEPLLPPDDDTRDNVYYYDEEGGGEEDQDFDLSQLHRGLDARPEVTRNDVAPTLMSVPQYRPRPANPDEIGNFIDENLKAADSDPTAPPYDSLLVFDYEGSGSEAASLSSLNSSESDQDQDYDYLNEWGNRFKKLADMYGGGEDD

B1: rabbit anti-mouse E-cad monoclonal antibody mAb-2_18-5 (antibody, mouse IgG1, V domains shown)
VH: EQLEESGGGLVKPGASLTLTCTASGFDLSTYFYMCWVRQAPGKGLEWIACIYVGSTGDTYYANWAKGRFTISKTSSTTVTLQMTSLTDADTATYFCARDIFATGINYYRALWGPGTLVTVSS
VL: AFELTQTPASVEAGVGGTVTIKCQASESINSWLSWYQQKPGQPPTLLIYSASTLASGVPSRFKGSRSGTQFTLTISDLECADAATYYCQSYYGTSTTAFGGGTEVVVK
notes: also called Whole IgG 18.5
B2: mouse anti-human E-cad monoclonal antibody mAB-1_19A11 (antibody, V domains shown)
VH: QVQLKESGPGLVAPSQSLSITCTVSGFSLSRYGVHWVRQPPGKGLEWLGMMWGGGNTDYNSALKSRLSISKDNSKSQVFLKMNSLQTDDTAMYYCASSNYVLGYAMDYWGQGTSVTVSS
VL: DIVMTQSPSSLAMSVGQKVTMNCKSSQSLLNSSNQKNYLAWYQQKPGQSPKLLIYFTSTRGSGVPDRFIGSGSGTDFTLTISSVEAEDLADYFCQQHYRTPHTFGGGTKVEIK
notes: also called mAb 19A11

What was measured:
[1] = target: T1, mouse E-cadherin (form in the assay not …); assay: ELISA of hybridomas
[2] = target: T2, mouse E-cadherin on cells (endogenous …); assay: immunofluorescence staining of parental 4T1 cells, antibody at 1 µg/mL for 7 hrs
[3] = target: T1, mouse E-cadherin (form in the assay not …); assay: not described

Row | Binder | binding result [1] | binding result [2] | binding result [3]
1 | B1 | binds | binds | 
2 | B2 |  |  | no binding
